Reference: patent US20100204461 (published 2010)

Target: alpha-thrombin (UniProt P00734;P00734 P00734:328-363,P00734:364-622)
Assay: fluorescence dequenching at 277 nM TAL2, protein ratios 1:1 to 100:1; t1/2 about 30 min at 10-fold excess; 10 mM KCl, 5 mM MgCl2, 12.5 mM Tris acetate pH 6.5

B1: TAL2 beacon with Dabcyl anchor (structured_DNA)
DNA 1: GGTTGGTTTGGTTGGCAACCTCTGCTACGTG
DNA 2: CACGTAGCAG
modifications: anchor 5' NH2-(CH2)6
binding result: binds
